Measured values reported in US20240261333A1, “NOVEL TARGETS FOR ENHANCING ANTI-TUMOR IMMUNITY” (THE BROAD INSTITUTE, INC., priority 2021, published 2024).

Assays:
Experiment in all cases: co-IP, IgG control, lysate of cells with C-FLAG B3GNT2; mass spectrometry
RPS3 (human) = RPS3 (human) (UniProt P23396)
RPS28 (human) = RPS28 (human) (UniProt P62857)
PRBP1 (human) = PRBP1 (human) (UniProt P26599)
SAMM50 (human) = SAMM50 (human) (UniProt Q9Y512)
PRRC2A (human) = PRRC2A (human) (UniProt P48634)
LMNA (human) = LMNA (human) (UniProt P02545)
Sequence of LMNA (human) (P02545 1-646 limits assumed): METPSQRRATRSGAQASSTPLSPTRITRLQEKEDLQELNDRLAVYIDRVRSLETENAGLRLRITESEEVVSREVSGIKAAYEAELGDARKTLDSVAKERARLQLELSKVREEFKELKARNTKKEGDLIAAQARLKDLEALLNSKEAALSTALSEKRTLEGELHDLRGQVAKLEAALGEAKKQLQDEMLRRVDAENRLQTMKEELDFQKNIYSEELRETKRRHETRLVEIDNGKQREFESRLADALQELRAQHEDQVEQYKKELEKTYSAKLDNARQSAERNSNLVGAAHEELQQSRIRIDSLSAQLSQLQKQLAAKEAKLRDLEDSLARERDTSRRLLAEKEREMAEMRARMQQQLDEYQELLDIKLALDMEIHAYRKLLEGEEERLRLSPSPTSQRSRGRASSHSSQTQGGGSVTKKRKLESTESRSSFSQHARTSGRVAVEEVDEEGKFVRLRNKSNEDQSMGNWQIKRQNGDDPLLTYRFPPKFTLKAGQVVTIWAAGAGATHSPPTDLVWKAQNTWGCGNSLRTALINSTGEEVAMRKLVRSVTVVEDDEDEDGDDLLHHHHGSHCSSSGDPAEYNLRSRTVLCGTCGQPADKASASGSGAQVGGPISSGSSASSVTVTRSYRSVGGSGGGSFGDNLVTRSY

HNRNPK (human) = HNRNPK (human) (UniProt P61978)
RPL13 (human) = RPL13 (human) (UniProt P26373)
CAT (human) = CAT (human) (UniProt P04040)
Sequence of CAT (human) (P04040 2-527 limits assumed): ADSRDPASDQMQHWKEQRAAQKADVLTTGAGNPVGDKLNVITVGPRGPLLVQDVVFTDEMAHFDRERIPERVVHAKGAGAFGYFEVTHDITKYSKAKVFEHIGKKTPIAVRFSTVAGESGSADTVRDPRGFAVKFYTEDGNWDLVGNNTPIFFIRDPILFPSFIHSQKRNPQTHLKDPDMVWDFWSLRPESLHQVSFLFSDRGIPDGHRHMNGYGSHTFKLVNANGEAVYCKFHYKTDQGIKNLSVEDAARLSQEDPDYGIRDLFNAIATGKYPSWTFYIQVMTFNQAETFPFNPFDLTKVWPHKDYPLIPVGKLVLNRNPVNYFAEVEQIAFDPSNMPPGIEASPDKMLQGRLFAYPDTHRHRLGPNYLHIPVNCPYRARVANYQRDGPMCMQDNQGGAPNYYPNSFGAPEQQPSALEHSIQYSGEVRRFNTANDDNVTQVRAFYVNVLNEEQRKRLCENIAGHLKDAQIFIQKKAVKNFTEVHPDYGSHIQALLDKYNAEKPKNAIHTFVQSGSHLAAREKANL

SPTAN1 (human) = SPTAN1 (human) (UniProt Q13813)
NUFIP2 (human) = NUFIP2 (human) (UniProt Q7Z417)
Sequence of NUFIP2 (human) (Q7Z417 whole entry): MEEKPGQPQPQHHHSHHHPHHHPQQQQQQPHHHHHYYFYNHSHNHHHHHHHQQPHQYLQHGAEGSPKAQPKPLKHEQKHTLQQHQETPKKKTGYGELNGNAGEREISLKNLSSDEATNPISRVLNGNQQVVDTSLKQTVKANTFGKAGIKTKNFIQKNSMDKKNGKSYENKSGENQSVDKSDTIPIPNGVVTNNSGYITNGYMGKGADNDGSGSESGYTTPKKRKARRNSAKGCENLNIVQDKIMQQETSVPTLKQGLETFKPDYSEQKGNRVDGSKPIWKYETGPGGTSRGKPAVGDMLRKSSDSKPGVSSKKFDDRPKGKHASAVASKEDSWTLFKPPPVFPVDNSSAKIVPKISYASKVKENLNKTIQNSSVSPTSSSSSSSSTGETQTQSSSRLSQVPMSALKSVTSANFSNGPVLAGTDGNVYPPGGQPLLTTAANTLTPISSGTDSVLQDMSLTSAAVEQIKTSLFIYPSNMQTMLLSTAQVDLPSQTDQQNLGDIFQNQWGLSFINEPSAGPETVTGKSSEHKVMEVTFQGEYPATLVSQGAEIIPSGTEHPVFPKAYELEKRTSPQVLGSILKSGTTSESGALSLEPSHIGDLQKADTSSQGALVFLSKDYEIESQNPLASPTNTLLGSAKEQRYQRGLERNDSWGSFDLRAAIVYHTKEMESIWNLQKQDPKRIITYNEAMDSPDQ

GGCT (human) = GGCT (human) (UniProt O75223)
Sequence of GGCT (human) (O75223 whole entry): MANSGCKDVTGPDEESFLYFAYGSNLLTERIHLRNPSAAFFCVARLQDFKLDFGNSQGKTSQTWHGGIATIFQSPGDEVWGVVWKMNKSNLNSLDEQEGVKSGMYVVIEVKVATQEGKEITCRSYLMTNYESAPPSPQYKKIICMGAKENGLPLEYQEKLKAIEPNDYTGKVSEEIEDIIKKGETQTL

MYH11 (human) = MYH11 (human) (UniProt P35749)
HSPA8 (human) = HSPA8 (human) (UniProt P11142)
Sequence of HSPA8 (human) (P11142 2-646 limits assumed): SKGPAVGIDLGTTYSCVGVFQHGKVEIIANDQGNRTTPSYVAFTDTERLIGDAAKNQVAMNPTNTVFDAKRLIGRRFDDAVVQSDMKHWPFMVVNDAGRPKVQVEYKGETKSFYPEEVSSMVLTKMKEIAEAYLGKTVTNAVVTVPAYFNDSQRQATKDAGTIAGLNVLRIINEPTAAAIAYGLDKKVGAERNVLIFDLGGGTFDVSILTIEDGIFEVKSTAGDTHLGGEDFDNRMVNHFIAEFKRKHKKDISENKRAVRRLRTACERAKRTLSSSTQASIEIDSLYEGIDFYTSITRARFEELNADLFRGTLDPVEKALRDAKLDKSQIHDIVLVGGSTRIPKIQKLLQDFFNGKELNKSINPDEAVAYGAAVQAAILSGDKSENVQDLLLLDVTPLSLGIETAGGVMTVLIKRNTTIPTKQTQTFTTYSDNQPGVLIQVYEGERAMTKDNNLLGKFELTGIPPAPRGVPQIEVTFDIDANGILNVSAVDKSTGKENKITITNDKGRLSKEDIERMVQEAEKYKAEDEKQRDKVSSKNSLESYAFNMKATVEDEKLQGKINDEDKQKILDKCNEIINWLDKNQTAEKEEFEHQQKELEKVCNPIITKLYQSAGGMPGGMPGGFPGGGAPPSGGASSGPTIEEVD

HUWE1 (human) = HUWE1 (human) (UniProt Q7Z6Z7)
FAU (human) = FAU (human) (UniProt P62861)
C1orf68 (human) = C1orf68 (human) (UniProt Q5T750)
LSM12 (human) = LSM12 (human) (UniProt Q3MHD2)
Sequence of LSM12 (human) (Q3MHD2 2-195 limits assumed): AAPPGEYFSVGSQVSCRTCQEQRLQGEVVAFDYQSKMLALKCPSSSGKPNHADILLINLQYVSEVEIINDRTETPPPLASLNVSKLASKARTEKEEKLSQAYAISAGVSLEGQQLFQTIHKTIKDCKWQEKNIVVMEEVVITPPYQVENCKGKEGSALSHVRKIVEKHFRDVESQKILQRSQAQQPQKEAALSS

PARP1 (human) = PARP1 (human) (UniProt P09874)
PUM1 (human) = PUM1 (human) (UniProt Q14671)
ARPC4 (human) = ARPC4 (human) (UniProt P59998)
SERBP1 (human) = target: T1, SERBP1 (human) (UniProt Q8NC51)
T1 sequence (looked up): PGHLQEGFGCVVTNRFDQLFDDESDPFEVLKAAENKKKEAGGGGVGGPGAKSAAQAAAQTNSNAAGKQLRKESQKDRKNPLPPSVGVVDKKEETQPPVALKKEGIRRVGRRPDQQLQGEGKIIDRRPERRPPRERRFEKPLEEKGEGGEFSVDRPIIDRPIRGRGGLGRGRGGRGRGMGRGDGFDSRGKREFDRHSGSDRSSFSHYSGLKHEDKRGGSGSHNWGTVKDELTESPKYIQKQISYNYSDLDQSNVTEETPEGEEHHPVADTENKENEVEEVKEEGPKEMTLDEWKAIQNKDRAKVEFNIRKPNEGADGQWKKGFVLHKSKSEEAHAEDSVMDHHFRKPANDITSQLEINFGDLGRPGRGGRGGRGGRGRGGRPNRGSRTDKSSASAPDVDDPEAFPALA

RPL4 (human) = RPL4 (human) (UniProt P36578)
CSE1L (human) = CSE1L (human) (UniProt P55060)
Sequence of CSE1L (human) (P55060 other isoform, or with tags, fused parts or gaps limits assumed): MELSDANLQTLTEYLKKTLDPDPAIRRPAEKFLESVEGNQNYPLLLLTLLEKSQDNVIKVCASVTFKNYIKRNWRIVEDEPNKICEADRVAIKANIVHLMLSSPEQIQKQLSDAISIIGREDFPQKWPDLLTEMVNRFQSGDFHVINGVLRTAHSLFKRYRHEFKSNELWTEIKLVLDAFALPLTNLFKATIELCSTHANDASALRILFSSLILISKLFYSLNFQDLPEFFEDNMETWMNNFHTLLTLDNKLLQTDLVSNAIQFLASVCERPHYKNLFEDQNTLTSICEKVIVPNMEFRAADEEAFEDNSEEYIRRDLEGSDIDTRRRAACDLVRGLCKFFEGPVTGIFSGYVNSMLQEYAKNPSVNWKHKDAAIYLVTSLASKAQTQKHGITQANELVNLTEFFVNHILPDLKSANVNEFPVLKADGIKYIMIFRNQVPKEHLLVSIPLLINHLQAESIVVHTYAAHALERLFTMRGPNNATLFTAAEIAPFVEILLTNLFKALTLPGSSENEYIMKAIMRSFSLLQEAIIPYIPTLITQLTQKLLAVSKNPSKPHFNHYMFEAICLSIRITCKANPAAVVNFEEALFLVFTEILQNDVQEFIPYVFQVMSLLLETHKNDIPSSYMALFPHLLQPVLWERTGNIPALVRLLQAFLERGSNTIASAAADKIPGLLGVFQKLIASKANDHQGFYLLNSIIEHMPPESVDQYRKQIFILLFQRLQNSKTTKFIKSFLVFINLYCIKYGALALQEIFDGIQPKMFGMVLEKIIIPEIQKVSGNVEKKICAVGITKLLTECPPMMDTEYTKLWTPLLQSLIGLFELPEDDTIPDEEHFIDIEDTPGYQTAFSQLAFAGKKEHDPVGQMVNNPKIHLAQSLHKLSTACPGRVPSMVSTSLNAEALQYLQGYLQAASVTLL

RPL18 (human) = RPL18 (human) (UniProt Q07020)
DDX5 (human) = DDX5 (human) (UniProt P17844)
RPL10 (human) = RPL10 (human) (UniProt P27635)

Sequence of SAMM50 (human) (Q9Y512 whole entry): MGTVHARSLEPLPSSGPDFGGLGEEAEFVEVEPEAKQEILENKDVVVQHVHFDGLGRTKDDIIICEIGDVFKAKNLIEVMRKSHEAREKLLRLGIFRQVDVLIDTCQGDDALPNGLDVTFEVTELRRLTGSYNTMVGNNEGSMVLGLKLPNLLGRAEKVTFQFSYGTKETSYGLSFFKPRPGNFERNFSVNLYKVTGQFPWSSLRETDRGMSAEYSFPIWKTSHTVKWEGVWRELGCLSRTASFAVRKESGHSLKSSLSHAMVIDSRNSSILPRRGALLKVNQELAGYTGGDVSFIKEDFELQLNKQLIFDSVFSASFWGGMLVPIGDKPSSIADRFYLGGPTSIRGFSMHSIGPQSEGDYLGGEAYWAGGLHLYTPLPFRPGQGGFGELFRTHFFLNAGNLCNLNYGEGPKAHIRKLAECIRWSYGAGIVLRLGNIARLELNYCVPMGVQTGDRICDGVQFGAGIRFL
Sequence of PRBP1 (human) (P26599 whole entry): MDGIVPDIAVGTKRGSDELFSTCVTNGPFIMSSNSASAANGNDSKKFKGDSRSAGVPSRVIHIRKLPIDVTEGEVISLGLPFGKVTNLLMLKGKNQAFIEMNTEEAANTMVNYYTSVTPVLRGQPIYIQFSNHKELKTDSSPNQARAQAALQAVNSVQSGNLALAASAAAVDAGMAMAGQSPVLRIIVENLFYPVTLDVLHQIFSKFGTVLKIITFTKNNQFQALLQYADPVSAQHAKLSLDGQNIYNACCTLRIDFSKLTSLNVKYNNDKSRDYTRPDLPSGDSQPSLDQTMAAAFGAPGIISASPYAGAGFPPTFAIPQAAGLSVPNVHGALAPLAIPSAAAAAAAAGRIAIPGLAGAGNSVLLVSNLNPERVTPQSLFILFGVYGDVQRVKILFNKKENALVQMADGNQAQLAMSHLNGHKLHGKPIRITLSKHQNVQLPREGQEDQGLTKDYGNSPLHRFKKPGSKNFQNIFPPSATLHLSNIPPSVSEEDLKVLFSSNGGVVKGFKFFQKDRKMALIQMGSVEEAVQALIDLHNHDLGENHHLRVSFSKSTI

With “IgG control (Millipore Sigma 12-371) (antibody)” the co-IP mass spectrometry count (RPS3 (human)) was 17, the co-IP mass spectrometry count (RPS28 (human)) was 0 and the co-IP mass spectrometry count (PRBP1 (human)) was 6. The co-IP mass spectrometry count (SAMM50 (human)) was 0, the co-IP mass spectrometry count (PRRC2A (human)) was 3 and the co-IP mass spectrometry count (LMNA (human)) was 18. It also gave a co-IP mass spectrometry count (HNRNPK (human)) of 10, a co-IP mass spectrometry count (RPL13 (human)) of 8 and a co-IP mass spectrometry count (CAT (human)) of 3. The co-IP mass spectrometry count (SPTAN1 (human)) was 0, the co-IP mass spectrometry count (NUFIP2 (human)) was 4 and the co-IP mass spectrometry count (GGCT (human)) was 0. The co-IP mass spectrometry count (MYH11 (human)) was 5, the co-IP mass spectrometry count (HSPA8 (human)) was 15 and the co-IP mass spectrometry count (HUWE1 (human)) was 0. It also gave a co-IP mass spectrometry count (FAU (human)) of 5, a co-IP mass spectrometry count (C1orf68 (human)) of 4 and a co-IP mass spectrometry count (LSM12 (human)) of 0. It also gave a co-IP mass spectrometry count (PARP1 (human)) of 0, a co-IP mass spectrometry count (PUM1 (human)) of 0 and a co-IP mass spectrometry count (ARPC4 (human)) of 0. For the same substance, the co-IP mass spectrometry count (SERBP1 (human)) was 5, the co-IP mass spectrometry count (RPL4 (human)) was 6 and the co-IP mass spectrometry count (CSE1L (human)) was 0. For the same substance, the co-IP mass spectrometry count (RPL18 (human)) was 7, the co-IP mass spectrometry count (DDX5 (human)) was 16 and the co-IP mass spectrometry count (RPL10 (human)) was 3.
